Source: the supplement of paper PMC7877785
± gives the uncertainty stated by the source.

Assay: self-splicing fitness, log relative to wild type (ln ratio); higher = more splicing; Tetrahymena group I intron in knt gene, E. coli kanamycin selection, DiMSum; sequences stand for … in CUCUCU…GGAGGGAAAAGUUAUCAGGCAUGCACCUGGUAGCUAGUCUUUAAACCAAUAGAUUGCAUCGGUUUAAAAGGCAAGACCGUCAAAUUGCGGGAAAGGGGUCAACAGCCGUUCAGUACCAAGUCUCAGGGGAAACUUUGAGAUGGCCUUGCAAAGGGUAUGGUAAUAAGCUGACGGACAUGGUCCUAACCACGCAGCCAAGUCCUAAGUCAACAGAUCUUCUGUUGAUAUGGAUGCAGUUCACAGACUAAAUGUCGGUCGGGGAAGAUGUAUUCUUCUCAUAAGAUAUAGUCGGACCUCUCCUUAAUGGGAGCUAGCGGAUGAAGUGAUGCAACACUGGAGCCGCUGGGAACUAAUUUGUAUGCGAAAGUAUAUUGAUUAGUUUUGGAGUACUCGUGGUCG
Method in brief: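 Six replicate transformations of E. coli BL21(DE3) with a pET-22b(+) library were grown overnight at 37°C or 30°C. The library randomised all eight P1ex-region intron nucleotides, the intron lying in the knt kanamycin-resistance gene, and plates were LB agar with or without 25 μg/mL kanamycin plus 100 μg/mL carbenicillin, 50 μM IPTG and 0.2% rhamnose. Pooled colonies were amplicon-sequenced on an Illumina HiSeq 2500, and fitness is the DiMSum error-weighted combination of wild-type-normalised replicate fold changes, kanamycin versus none.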

| Sequence | self-splicing fitness (ln) (30 °C) | self-splicing fitness (ln) (37 °C) |
| --- | --- | --- |
| CAAGAGCAAUAUUACGAGUU | -2.81 ± 0.13 | -2.82 ± 0.18 |
| CAAGAGCAAUAUUACGAUCU | – | -1.79 ± 0.31 |
| CAAGAGCAAUAUUACGCACU | -3.06 ± 0.33 | – |
| CAAGAGCAAUAUUACGCCAU | -3.2 ± 0.23 | -2.02 ± 0.28 |
| CAAGAGCAAUAUUACGCGAC | -3.73 ± 0.23 | -1.93 ± 0.13 |
| CAAGAGCAAUAUUACGCGGC | -3.74 ± 0.31 | -3.52 ± 0.28 |
| CAAGAGCAAUAUUACGCUAA | -3.93 ± 0.27 | -1.52 ± 0.21 |
| CAAGAGCAAUAUUACGGACG | -0.541 ± 0.074 | 0.217 ± 0.093 |
| CAAGAGCAAUAUUACGGCAA | -3.01 ± 0.29 | -3.03 ± 0.38 |
| CAAGAGCAAUAUUACGUAAU | -2.63 ± 0.23 | -2.7 ± 0.32 |
| CAAGAGCAAUAUUACGUACU | -3.74 ± 0.21 | -1.92 ± 0.2 |
| CAAGAGCAAUAUUACGUAUU | -3.55 ± 0.23 | -1.83 ± 0.19 |
| CAAGAGCAAUAUUACGUUGA | -3.98 ± 0.36 | -2.94 ± 0.21 |
| CAAGAGCAAUAUUACGUUUA | -2.84 ± 0.26 | -1.61 ± 0.23 |
| CAAGAGCAAUAUUACGUUUC | -3.38 ± 0.24 | -2.01 ± 0.26 |
| CAAUAGCAAUAUUACGAGGC | -3.6 ± 0.33 | -1.44 ± 0.31 |
| CAAUAGCAAUAUUACGAUAU | -4.72 ± 0.34 | -2.59 ± 0.22 |
| CAAUAGCAAUAUUACGAUUU | -2.3 ± 0.091 | -0.775 ± 0.084 |
| CAAUAGCAAUAUUACGCAAG | -1.19 ± 0.1 | -0.905 ± 0.14 |
| CAAUAGCAAUAUUACGCCCA | -1.6 ± 0.41 | – |
| CAAUAGCAAUAUUACGCGCC | – | -1.04 ± 0.44 |
| CAAUAGCAAUAUUACGCUGA | -3.11 ± 0.22 | -1.85 ± 0.16 |

| Sequence | self-splicing fitness (ln) (30 °C) | self-splicing fitness (ln) (37 °C) |
| --- | --- | --- |
| CAAUAGCAAUAUUACGCUGG | -1.32 ± 0.13 | -0.734 ± 0.14 |
| CAAUAGCAAUAUUACGGACA | -2.44 ± 0.16 | -1.5 ± 0.15 |
| CAAUAGCAAUAUUACGGCAA | -3.51 ± 0.38 | -1.11 ± 0.22 |
| CAAUAGCAAUAUUACGGCCA | -3.08 ± 0.3 | -1.49 ± 0.32 |
| CAAUAGCAAUAUUACGGGAU | -3.36 ± 0.31 | -2.57 ± 0.35 |
| CAAUAGCAAUAUUACGGUUG | -2.6 ± 0.12 | -1.67 ± 0.12 |
| CAAUAGCAAUAUUACGGUUU | -2.88 ± 0.13 | -1.88 ± 0.15 |
| CAAUAGCAAUAUUACGUAAC | -3.94 ± 0.35 | -3.27 ± 0.43 |
| CAAUAGCAAUAUUACGUAUC | -3.48 ± 0.15 | -2.73 ± 0.18 |
| CAAUAGCAAUAUUACGUGAG | -0.424 ± 0.076 | 0.678 ± 0.11 |
| CAAUAGCAAUAUUACGUGUG | -1.72 ± 0.053 | -0.748 ± 0.063 |
| CAAUAGCAAUAUUACGUUCC | -2.6 ± 0.26 | -2.13 ± 0.35 |
| CAAUAGCAAUAUUACGUUUG | -2.52 ± 0.11 | -1.52 ± 0.11 |
| CAAUAGCAAUAUUACGUUUU | -5.04 ± 0.25 | -2.5 ± 0.13 |
| CACAAGCAAUAUUACGAACU | -3.64 ± 0.19 | -2.37 ± 0.17 |
| CACAAGCAAUAUUACGAAGC | -4.44 ± 0.28 | -1.87 ± 0.19 |
| CACAAGCAAUAUUACGACUA | -1.02 ± 0.089 | -1.21 ± 0.074 |
| CACAAGCAAUAUUACGAGGA | -3.18 ± 0.25 | -2.59 ± 0.19 |
| CACAAGCAAUAUUACGAUUG | -2.41 ± 0.064 | -1.15 ± 0.075 |
| CACAAGCAAUAUUACGCAAC | -3.27 ± 0.26 | -2.27 ± 0.32 |
| CACAAGCAAUAUUACGCCCU | -3.12 ± 0.19 | -0.633 ± 0.13 |
